Measurements taken from US20200392203A1 (YEDA RESEARCH AND DEVELOPMENT, published 2020).

B1: soluble apical domain (sAD) of Neotoma albigula (White-throated woodrat) TfR1 (receptor)
chain: GSKIQVKCSAPNSVTITNASGGLYLVEYPEGYVAYSKATEVTGKLVHANFGTKKDFEDLDYAVNGSIVIVRAGKITIAEKVANAQSFNAIGVLIYKDRTKYPISRADEPLQGHSGLPSIPVQTISREAAEKLFQNMERDCPRSWNTDSSCKLELLQNRNVKLTVNNCLKE

What was measured:
[1] = target: native spike complex (glycoprotein complex, GPC) of Junin virus (JUNV) (Junin virus (JUNV))
[2] = target: native spike complex (glycoprotein complex, GPC) of Sabia virus (SABV) (Sabia virus (SABV))
[3] = target: GP1GTOV-Fc (GP1 domain of Guanarito virus fused at its C' terminus to an antibody Fc portion) (Guanarito virus (GTOV)) (UniProt Q8AYW1); test: SPR (Biacore T200), single-cycle kinetics; […]; 1:1 model fit
[4] = target: GP1WWAV-Fc (GP1 domain of Whitewater Arroyo virus fused at its C' terminus to an antibody Fc portion) (Whitewater Arroyo virus (WWAV)) (UniProt Q911P0); test: SPR (Biacore T200), single cycle kinetics; […]; 1:1 model
Chain of GP1WWAV-Fc (GP1 domain of Whitewater Arroyo virus fused at its C' terminus to an antibody Fc portion) (Whitewater Arroyo virus (WWAV)) (Q911P0 87-241): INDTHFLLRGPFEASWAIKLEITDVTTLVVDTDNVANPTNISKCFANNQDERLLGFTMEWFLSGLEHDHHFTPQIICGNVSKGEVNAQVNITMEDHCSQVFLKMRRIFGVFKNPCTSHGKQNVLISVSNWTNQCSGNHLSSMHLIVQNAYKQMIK

Chain of native spike complex (glycoprotein complex, GPC) of Sabia virus (SABV) (Sabia virus (SABV)) (Q90037 2-58, chain 1 of 3): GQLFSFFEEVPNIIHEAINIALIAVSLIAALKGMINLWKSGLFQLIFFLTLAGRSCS
Chain of native spike complex (glycoprotein complex, GPC) of Sabia virus (SABV) (Sabia virus (SABV)) (Q90037 59-254, chain 2 of 3): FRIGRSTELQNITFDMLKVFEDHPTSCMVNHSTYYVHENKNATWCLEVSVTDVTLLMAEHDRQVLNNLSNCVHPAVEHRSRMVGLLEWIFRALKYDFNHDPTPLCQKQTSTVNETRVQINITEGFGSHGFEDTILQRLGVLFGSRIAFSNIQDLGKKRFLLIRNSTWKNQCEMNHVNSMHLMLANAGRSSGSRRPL
Chain of native spike complex (glycoprotein complex, GPC) of Sabia virus (SABV) (Sabia virus (SABV)) (Q90037 255-488, chain 3 of 3): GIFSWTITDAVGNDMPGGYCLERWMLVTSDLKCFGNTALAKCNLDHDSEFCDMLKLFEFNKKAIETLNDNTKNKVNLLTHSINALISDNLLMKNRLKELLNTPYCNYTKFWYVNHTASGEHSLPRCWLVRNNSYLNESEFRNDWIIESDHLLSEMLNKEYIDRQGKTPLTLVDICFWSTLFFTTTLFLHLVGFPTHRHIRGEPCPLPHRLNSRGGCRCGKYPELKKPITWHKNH
Chain of GP1GTOV-Fc (GP1 domain of Guanarito virus fused at its C' terminus to an antibody Fc portion) (Guanarito virus (GTOV)) (Q8AYW1 87-240): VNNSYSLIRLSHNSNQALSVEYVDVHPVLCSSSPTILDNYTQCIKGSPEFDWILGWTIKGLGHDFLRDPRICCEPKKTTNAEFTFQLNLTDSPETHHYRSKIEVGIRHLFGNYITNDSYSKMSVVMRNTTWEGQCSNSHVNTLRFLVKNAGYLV
Chain of native spike complex (glycoprotein complex, GPC) of Junin virus (JUNV) (Junin virus (JUNV)) (P26313 2-58 limits assumed, chain 1 of 3): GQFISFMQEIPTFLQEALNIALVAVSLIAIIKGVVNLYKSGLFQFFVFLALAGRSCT
Chain of native spike complex (glycoprotein complex, GPC) of Junin virus (JUNV) (Junin virus (JUNV)) (P26313 59-251 limits assumed, chain 2 of 3): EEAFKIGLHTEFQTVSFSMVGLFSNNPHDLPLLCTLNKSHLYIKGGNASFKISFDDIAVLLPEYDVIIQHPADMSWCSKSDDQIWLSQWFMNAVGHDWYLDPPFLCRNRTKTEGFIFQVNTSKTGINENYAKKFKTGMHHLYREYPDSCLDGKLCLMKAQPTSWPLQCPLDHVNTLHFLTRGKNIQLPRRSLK
Chain of native spike complex (glycoprotein complex, GPC) of Junin virus (JUNV) (Junin virus (JUNV)) (P26313 252-485 limits assumed, chain 3 of 3): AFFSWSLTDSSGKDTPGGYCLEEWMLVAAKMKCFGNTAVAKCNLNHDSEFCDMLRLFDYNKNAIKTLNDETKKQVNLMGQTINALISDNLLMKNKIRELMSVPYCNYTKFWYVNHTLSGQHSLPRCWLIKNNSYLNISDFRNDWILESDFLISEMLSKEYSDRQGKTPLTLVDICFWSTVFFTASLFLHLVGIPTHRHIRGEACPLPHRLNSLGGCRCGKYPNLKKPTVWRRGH

Molecule	pseudovirus neutralisation (luciferase, hTfR1-overexpressing HEK293 cells), IC50 [1]	pseudovirus neutralisation (luciferase, hTfR1-overexpressing HEK293 cells), IC50 [2]	Kd [3]	Kd [4]
Arenacept (sAD fused at its C'-terminus to an Fc portion of IgG1) (Fc fusion)	1.5 µg/mL	3.5 µg/mL	–	–
B1	–	–	360 nM	1000 nM
